According to patent US20260069707A1, “COMBINATION THERAPY WITH ANTIBODY-DRUG CONJUGATES AND HYALURONIDASES” (HALOZYME, INC., priority 2024, published 2026):

Legend:
[1] = Calculation of free payload:ADC following ADC administration
Protocol: Antibody drug conjugates with thiol-malimide conjugation undergo deconjugation following administration. To assess this deconjugation, free payload: ADC was calculated rather than reverse, because for completely stable antibody, ADC:free payload would be infinity.
Antibody drug conjugates with thiol-malimide conjugation undergo deconjugation following administration. To assess this deconjugation, free payload: ADC was calculated for specific antibody drug conjugates including Trastuzumab, Polatuzumab, Enfortumab and Tisotumab.

[2] = Post-injection bleb volume, area, height - caliper measurement; assay type: in vivo, Yucatan miniature pig (Sus scrofa domestica); settings: Example 8: dupilumab 2 mL; dupilumab + rHuPH20 5 mL; T0
Protocol: (§1) The needle was inserted vertically into the marked injection site and the HVAI held in place by hand. Target needle insertion depth was ˜10 mm. Injections were timed using a stopwatch. Upon completion of the injection the needle was removed and the HVAI device discarded. Test solution back-leakage was then absorbed to a tared eye-spear for 30 seconds on the injection site and the weight of the eye spear was measured using an analytical balance. The margins of the injection site bleb were marked with a permanent marker and measured for length, width, and height using a digital caliper and recorded then photographed with the standard and 3D cameras. Caliper measurements and photographs were taken immediately post-injection. Local injection sites were qualitatively assessed and graded daily for erythema severity, swelling size appearance, and firmness, using a scoring system described in Table 4 Table 5, and Table 6, respectively.
Assessment of Local Swelling Volume and Area Using Caliper Measurement and 3D Imaging. Volume and area of post-injection swelling were measured using both caliper measurement and 3D camera image analysis. For caliper measurements a digital caliper was utilized to measure length, width and height of the bleb that formed post-injection. The length and width are defined as the edge to edge measurements of the bleb (i.e., diameter) along their longest axes. These values were manually recorded, and the volume determined using the formula for half of an ellipsoid Vol=(⅔)*π*A*B*C where A=Length/2, B=Width/2 and C=Height.
Assessment of Post-Injection Bleb Volume, Area and Height (Caliper Measurements). The local injection site swelling (bleb) was marked and measured using a digital caliper.

[3] = Qualitative assessment of local injection sites (erythema, swelling size, induration); assay type: in vivo, Yucatan miniature pig (Sus scrofa domestica); settings: Example 8: dupilumab 2 mL; dupilumab + rHuPH20 5 mL; T0, three evaluators
Protocol: as §1
Approximately, 24 hours post-dosing of the first injection, each animal was re-anesthetized, and injection sites assessed for erythema, induration and swelling, then photographed and returned to its cage.

[4] = Calculation of drug to antibody ratio (DAR); settings: for ADC:free Ab / free Ab:ADC: after adjustment factor
Source text: The Drug-to-Antibody Ratio (DAR) is a critical parameter in antibody drug conjugate development, representing the average number of drug molecules attached to each antibody molecule.

[5] = Concentration (weight/mL) basis, Unconjugated MMAE/ADC over 28 days
[6] = Molar basis, Unconjugated MMAE/ADC over 28 days
[7] = Molar basis, Using molecular weight for the entire linker, MMAE/ADC over 28 days
[8] = Concentration (weight/mL) basis, unconjugated MMAE/antibody conjugated MMAE over 21 days
[9] = Molar basis, Using molecular weight for the entire linker
[10] = Molar basis, different tumor (line after the one using molecular weight for the entire linker)
[11] = Molar basis, unconjugated MMAE/antibody conjugated MMAE over 21 days
[12] = Concentration (weight/mL) basis
[13] = Molar basis, second line, Unconjugated MMAE/ADC over 21 days

Substance: Enfortumab vedotin (Padcev)
- free payload: ADC, AUC [1, 5]: 0.08%
- free payload: ADC, Cmax [1, 5]: 0.02%
- free payload: ADC, AUC [1, 6]: 16.4%
- free payload: ADC, Cmax [1, 6]: 4.2%
- free payload: ADC, AUC [1, 7]: 8.9%
- free payload: ADC, Cmax [1, 7]: 2.3%

Substance: Polatuzumab vedotin (Polivy)
- free payload: ADC, AUC [1, 8]: 1.52%
- free payload: ADC, Cmax [1, 8]: 0.46%
- free payload: ADC, AUC [1, 9]: 173.1%
- free payload: ADC, Cmax [1, 9]: 52.8%
- free payload: ADC, AUC ([1]; Molar basis, different tumor): 257.1%
- free payload: ADC, Cmax ([1]; Molar basis, different tumor): 87.2%
- free payload: ADC, AUC [1, 10]: 140.2%
- free payload: ADC, Cmax [1, 10]: 47.5%
- free payload: ADC, AUC [1, 11]: 317.5%
- free payload: ADC, Cmax [1, 11]: 96.9%

Substance: Tisotumab vedotin (Tivdak)
- free payload: ADC, AUC [1, 12]: 0.09%
- free payload: ADC, Cmax [1, 12]: 0.01%
- free payload: ADC, AUC ([1]; Molar basis): 18.5%
- free payload: ADC, Cmax ([1]; Molar basis): 3.1%
- free payload: ADC, AUC [1, 13]: 10.1%
- free payload: ADC, Cmax [1, 13]: 1.7%

Substance: dupilumab
- Post-injection bleb Area, caliper (Mean ± SEM) [2]: 13.1 ± 1.4
- Post-injection bleb Volume, caliper (Mean ± SEM) [2]: 7.0 ± 1.8
- Induration Score (Mean ± SEM) [3]: 2.4 ± 0.4
- Swelling Score (Mean ± SEM) [3]: 1.4 ± 0.2

Substance: mirvetuximab soravtansine
- % DAR remaining (which may be ~ADC/ total Ab) ([4]; Day 1): 88.4%
- % DAR remaining after adjustment factor to allow for variability (line without head) ([4]; Day 1): 70.7%
- ADC:free Ab ([4]; Day 1): 241.3%
- free Ab:ADC ([4]; Day 1): 41.4%
- % DAR remaining (which may be ~ADC/ total Ab) ([4]; Day 7): 32.6%
- % DAR remaining after adjustment factor to allow for variability (line without head) ([4]; Day 7): 26.0%
- ADC:free Ab ([4]; Day 7): 35.2%
- free Ab:ADC ([4]; Day 7): 283.9%
